The RNAGym collection of RNA variant scans (doi:10.1073/pnas.2313332121)

B1: TPR t1 (parent)
chain: GACCAAUCUGCCCUCAGAGCUCGAGAACAUCUUCGGAUGCAGAGGAGGCAGGCUUCGGUGGCGCGAUAGCGCCAACGUCCUCAACCUCCAAUGCAUCCCACCACAUGAUGAUGCCUGAAGAGCCUUGGUUUUUUG

Variants of: B1
Test: polymerase ribozyme fitness, log enrichment relative to wild type (log ratio); higher = more active; in vitro selection for triplet polymerase activity
In short: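 Each subunit of a heterodimeric triplet polymerase ribozyme was represented by a PCR-built, transcribed mutant library that underwent triplicate single-round in vitro selection with frozen incubation at −7 °C. Extended constructs were recovered by gel excision, streptavidin-bead capture and RT-PCR, and Illumina sequencing of input and output libraries kept genotypes with ≥10 input reads and ≥1 read per output. Fitness is the logarithm of genotype enrichment relative to wild-type enrichment, from inverse-variance-weighted replicate averages, with a logarithm base of 2.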

Row | Variant | polymerase ribozyme fitness (log ratio)
1 | GACCAAUCUGCCCUCAGAGCUCGAGCACAUCUUCGGAUGCAGAGGAGGAAGGCUUCGGUGGCGCGAUAGCGCCAACGUCCUCAACCUCCAAUGCAUCCCACCACAUGAUGAUGCCUGAAGAGUCUUGGUUUUUUG [A26C C49A C123U] | -4.69
2 | GACCAAUCUGCCCUCAGAGCUCGAGAACAUCUUCGGAUGCAGAGGAGGCAGGCUUCGGUGGCGCGAUAGCGGCAACGUCCUCAACCUGCAAUGCAGCCCACCACAUGAUGAUGCCUGAAGAGCCUUGGUUUUUUG [C72G C88G U96G] | -2.68
3 | GACCAAUCUGCCAUCAGAGCUCGAGAACAUCUUCGGAUGCAGAGGAGGCAGGCUUCGGUGGCGUGAUAGCGCCAACGUCCUCAACCUCCAAUGCAUCCCACCACAUGAUGAUGCAUGAAGAGCCUUGGUUUUUUG [C13A C64U C115A] | -2.72
4 | GACCAAUCUGCCCUCAGAGCUCGAGAACAUCUUCGGAAGCGGAAGAGGCAGGCUUCGGUGGCGUGAUAGCGCCAACGUCCUUAACCUCCAAUGCAUCCCACCACAUGAUGAUGCCUGAAGAGCCUUGGUUUUUUG [U38A A41G G44A C64U C82U] | -4.14
5 | GACCAAUCUGCACUCAGAGCUCGAGAACAUCUUCGGAUGCAGAGGAGGCAGGCUUCGGUGGCGCGAUAGCGCCAACGUCCUCAACUUCCAAUGCAUCCCACCACAUGAUGAUGCCUGAAGAGCCUUGGUUUUUUG [C12A C86U] | -0.885
6 | GACCAAUCUGGCCUCAGAGCUCGAGAACAUCUUCGGAUGUAGAGGAGGCAGGCUUCGGUGGCGCGAUAUCGCCGACGUACUCAACCUCCAAUGCAUCCCACCACAUGAUGAUGCAUGAAGAGCCUUGGUUUUUUG [C11G C40U G69U A74G C79A C115A] | -4
7 | GACCAAACUGCCCUCAGAGCUCGAGAACAUCUUCGGAUGCAGAGGAGGCAGGCUUCGGUGGCGCGAUAGCACCAACGUCCUCAACCUCCAAUGCAUCCCACCACAUGAUGAUGCCUGAAGAGCCUUGGUUUUUUG [U7A G71A] | -0.425
8 | GACCAAUCUGCCCUCAGAGCUCGAGAACAUCUUCGGAUGCAGAGGAGGCAGGCUUCGGUGGCGCGAUAGCGCCAACGUCCUCAACCUCCAAUGCUUCCCACUACAUGAUGAUGCCUGAAGAGCCGUGGUUUUUUG [A95U C102U U125G] | -4.42
9 | GAACAAUCUGCCCUCAGAGCUCGAGAACAUCCUCGGAUGCAGAGGAGGCAGGCUUCGGUGGCGCGAUAACGCCAACGUCCUCAACCUCCAAUGCAUCCCACCACAUGAUGAUGCCUGAAAAGCCUUGGUUUUUUG [C3A U32C G69A G120A] | -3.63
10 | GACCAAUCUGCCCUCAGAGCUCGAGAACAUCUUCGGAUGCAGAGGAGGCAGGCUUCGCUGGCGCGAUAGCGCCAACGUCCUCAACAUCCAAUGCAUCCCACCACAUGAUGAUGCUUGAAGAGCCUUGGUUUUUUG [G58C C86A C115U] | -2.72
11 | GACCAAUGUGCCCUCAGAGCUCGAGAACAUCUUCGGAUGCAGAGGAGGCAGGCUUCGGUGACGCGAUAGCGCCAACGUCCUCAACCUCCAAUGUAUCCGACCACAUGAUGAUGCCUCAAGAGCCUUGGUUUUUUG [C8G G61A C94U C99G G117C] | -7.13
12 | GACCAAUCUGCCCCCAGAGCUCGAGAACAUCUUCGGAUGCAGAGGAGGCAGGCUUCGGUGGCGCGUUAGCGCCAACGUCCUCAACCUCCAAUGCAUCCCACCACAUGAUGAUGCCUGAAGAGCCUUGGUUUUUUG [U14C A66U] | -3.21
13 | GACCAAUCUGCCCUCAGAGCUCGAGAACAUCUUCGGAUGCAGAGGAGGCAGGCUUCGGUGGCGCGAUAGCGCCAACGUCCUCAACCUCCAAUGCAUCCCACCACAUGAUGAUGCUUGAACAGACUUGGUUUUUUG [C115U G120C C123A] | 0.543
14 | GACCAAUCUACCCUCAGAGCUCGAGAACUUCUUCGGAUGCAGAGGAGGCAGGCUUCGGUGGCGCGAUAUCGCCAACGUCCUCUACCUCCAAUGCAUCCCACCACAUGAUGAUGGCUGAAGAGGCUUGGUUUUUUG [G10A A29U G69U A83U C114G C123G] | -2.26
15 | GACCAAUCUGCCCUCAGAGCUCGAGAACAUCUUCGGAUGCAGAGGAGGCAGGCUUCGGUGGCGCGAUACCGCCAACGUCCUCAACCUCCAAUGCAUCACACCAAAUGAUGAUGCUUGAAGAGCCUUGGUUUUUUG [G69C C98A C104A C115U] | -7.27
16 | GACCAAUCUGCCUUCAGAGCUCGAGAACAUCUUCGGAUGCUGAGGAGGCAGGCUUCGGUGGCUCGAUAGCGCCAACGUCCUCAACCUCCAAUGCAUCCCACCACAUGAUGAUGCCUGAAGAGCCUUGGUUUUUUG [C13U A41U G63U] | -2.71
17 | GACCAAUCCGCCCUCAGAGCUCGAGAACAUCUUCGGAUGCAGAGGAGGCAGGCUUGGGUGGCGCGAUAGCGCCAACGUCCUCAACCUGCAAUGCAUCCCACCACAUGAUGAUGCCUGAAGAGCCUUGGUUUUUUG [U9C C56G C88G] | -1.64
18 | GACCUAGCUGCCCUCAGAGCUCGAGAACAUCUUCGGAUGCAGUGGAGGCAGGCUUCGGUGGCGCGAUAGCUCCAACGUCCUCCACCUCCAAUGCAUCCCACCACAUGAUGAUGCCUGAAGAGCCUUGGUUUUUUG [A5U U7G A43U G71U A83C] | -2.36
19 | GACCAAUCAGCCCUCUGAGCUCGAGAACAUCUUCGGAUGCAGUGGAGGCAGGCUUCGGUGGCGCGAUAGCGCCAACGUCCUCAACCUCCAGUGCAUCCCACCACAUGAUGAUGCCUGAAGAGCCUUGGUUUUUUG [U9A A16U A43U A91G] | -0.987
20 | GACCAAUCUGCCCUCAGAGCUCGAGAACAUCUUCGGAUGCAGAGGAGGUUGGCUUCGGUGGCGCGAUAGCGCCAACGUCCUCAACCUCCAAUGCAUCCCACCACAUGAUGAUGCCUGAAGAGCCUUGGUUUUUUG [C49U A50U] | -3.59
21 | GACCAAUCUGCUCUCAGAGCUUGAGAACAUCUUCGGAUGCAGAGGAGGCAGGCUUCGGUGGCGCGAUAGCGCCAACGUCCUCAACCUCCAAUGCAUCCCACCACAUGAUGAUGCCUGAAGAGCCUUGGUUUUUUG [C12U C22U] | -3.18
